T1: TAP-tagged Ndc1 (S. cerevisiae, UniProt P32500 1-655)
T1 sequence (looked up): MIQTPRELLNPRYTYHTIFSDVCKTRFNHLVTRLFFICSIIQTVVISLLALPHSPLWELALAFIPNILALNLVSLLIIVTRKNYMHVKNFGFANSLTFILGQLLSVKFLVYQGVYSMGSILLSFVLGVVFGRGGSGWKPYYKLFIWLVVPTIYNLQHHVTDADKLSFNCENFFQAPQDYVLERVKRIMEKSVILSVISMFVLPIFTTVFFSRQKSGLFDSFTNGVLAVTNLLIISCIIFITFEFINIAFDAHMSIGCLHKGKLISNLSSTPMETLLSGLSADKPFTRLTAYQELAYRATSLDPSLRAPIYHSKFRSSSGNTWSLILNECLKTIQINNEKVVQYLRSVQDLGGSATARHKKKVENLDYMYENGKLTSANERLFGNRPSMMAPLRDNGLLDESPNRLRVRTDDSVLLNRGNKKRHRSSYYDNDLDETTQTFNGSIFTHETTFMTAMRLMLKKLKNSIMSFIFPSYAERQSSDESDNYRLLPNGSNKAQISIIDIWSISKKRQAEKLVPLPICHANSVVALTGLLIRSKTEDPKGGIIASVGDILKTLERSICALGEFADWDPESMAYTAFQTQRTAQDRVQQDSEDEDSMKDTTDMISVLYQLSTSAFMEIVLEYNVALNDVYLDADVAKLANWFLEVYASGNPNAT


What was measured:
TAP-Nup170 = TAP-Nup170 (S. cerevisiae, UniProt P38181 1-1502); test: pull-down
TAP-tagged Ndc1 = target: T1, TAP-tagged Ndc1; test: pull-down

Sequence of TAP-Nup170 (P38181 whole entry): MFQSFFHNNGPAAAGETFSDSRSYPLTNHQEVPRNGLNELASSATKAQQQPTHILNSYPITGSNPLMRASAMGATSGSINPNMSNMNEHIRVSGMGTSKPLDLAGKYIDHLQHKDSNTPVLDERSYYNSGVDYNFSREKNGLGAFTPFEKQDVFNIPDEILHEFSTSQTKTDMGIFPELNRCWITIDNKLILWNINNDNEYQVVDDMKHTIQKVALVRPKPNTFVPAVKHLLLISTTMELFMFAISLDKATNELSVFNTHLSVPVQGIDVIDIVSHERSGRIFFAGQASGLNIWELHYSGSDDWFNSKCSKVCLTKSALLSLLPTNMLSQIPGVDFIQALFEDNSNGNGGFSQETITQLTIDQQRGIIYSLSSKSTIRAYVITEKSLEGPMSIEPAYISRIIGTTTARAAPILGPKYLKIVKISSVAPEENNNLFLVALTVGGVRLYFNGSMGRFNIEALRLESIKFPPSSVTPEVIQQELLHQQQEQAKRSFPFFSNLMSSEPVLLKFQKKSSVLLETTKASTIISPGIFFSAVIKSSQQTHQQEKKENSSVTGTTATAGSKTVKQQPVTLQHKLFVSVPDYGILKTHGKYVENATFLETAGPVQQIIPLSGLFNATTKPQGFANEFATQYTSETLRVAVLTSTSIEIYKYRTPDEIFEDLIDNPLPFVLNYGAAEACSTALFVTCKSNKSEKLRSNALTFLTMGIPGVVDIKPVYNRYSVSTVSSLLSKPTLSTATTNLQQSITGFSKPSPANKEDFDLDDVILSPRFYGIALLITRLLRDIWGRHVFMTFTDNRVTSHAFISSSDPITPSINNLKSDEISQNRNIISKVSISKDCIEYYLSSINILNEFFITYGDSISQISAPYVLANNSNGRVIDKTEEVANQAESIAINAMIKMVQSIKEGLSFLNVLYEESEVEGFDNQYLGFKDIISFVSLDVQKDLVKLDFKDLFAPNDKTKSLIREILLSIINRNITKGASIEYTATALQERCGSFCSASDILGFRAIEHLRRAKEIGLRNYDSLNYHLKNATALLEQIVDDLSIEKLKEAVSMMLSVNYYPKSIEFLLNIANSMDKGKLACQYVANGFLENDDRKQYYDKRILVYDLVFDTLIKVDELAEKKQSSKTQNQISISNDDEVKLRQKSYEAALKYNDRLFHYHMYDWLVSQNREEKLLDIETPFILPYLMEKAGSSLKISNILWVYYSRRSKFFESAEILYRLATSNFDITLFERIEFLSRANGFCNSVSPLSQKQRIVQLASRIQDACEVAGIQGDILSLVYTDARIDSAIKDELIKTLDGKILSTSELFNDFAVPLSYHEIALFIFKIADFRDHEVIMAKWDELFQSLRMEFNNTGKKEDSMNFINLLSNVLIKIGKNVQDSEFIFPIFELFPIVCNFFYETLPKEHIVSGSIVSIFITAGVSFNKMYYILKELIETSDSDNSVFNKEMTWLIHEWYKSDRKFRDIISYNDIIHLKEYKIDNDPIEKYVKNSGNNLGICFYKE

Row | Binder | binding result (TAP-Nup170) | binding result (TAP-tagged Ndc1)
1 | 6xHis-MBP-Nup53 (natural protein, S. cerevisiae, UniProt Q03790 1-475, looked up) MADLQKQENSSRFTNVSVIAPESQGQHEQQKQQEQLEQQKQPTGLLKGLNGFPSAPQPLFMEDPPSTVSGELNDNPAWFNNPRKRAIPNSIIKRSNGQSLSPVRSDSADVPAFSNSNGFNNVTFGSKKDPRILKNVSPNDNNSANNNAHSSDLGTVVFDSNEAPPKTSLADWQKEDGIFSSKTDNIEDPNLSSNITFDGKPTATPSPFRPLEKTSRILNFFDKNTKTTPNTASSEASAGSKEGASTNWDDHAIIIFGYPETIANSIILHFANFGEILEDFRVIKDFKKLNSKNMSKSPSLTAQKYPIYTGDGWVKLTYKSELSKSRALQENGIIMNGTLIGCVSYSPAALKQLASLKKSEEIINNKTSSQTSLSSKDLSNYRKTEGIFEKAKAKAVTSKVRNAEFKVSKNSTSFKNPRRLEIKDGRSLFLRNRGKIHSGVLSSIESDLKKREQASKSKKSWLNRLNNWLFGWNDL | binds | 
2 | GST-Nup53(376-475) (domain or fragment, S. cerevisiae, UniProt Q03790 376-475, looked up) KDLSNYRKTEGIFEKAKAKAVTSKVRNAEFKVSKNSTSFKNPRRLEIKDGRSLFLRNRGKIHSGVLSSIESDLKKREQASKSKKSWLNRLNNWLFGWNDL |  | binds

Now from value to binder:

Row | binding result (TAP-Nup170) | binding result (TAP-tagged Ndc1) | Binder
3 |  | binds | GST-Nup59 (natural protein, S. cerevisiae, UniProt Q05166 1-528, looked up) MFGIRSGNNNGGFTNLTSQAPQTTQMFQSQSQLQPQPQPQPQQQQQHLQFNGSSDASSLRFGNSLSNTVNANNYSSNIGNNSINNNNIKNGTNNISQHGQGNNPSWVNNPKKRFTPHTVIRRKTTKQNSSSDINQNDDSSSMNATMRNFSKQNQDSKHNERNKSAANNDINSLLSNFNDIPPSVTLQDWQREDEFGSIPSLTTQFVTDKYTAKKTNRSAYDSKNTPNVFDKDSYVRIANIEQNHLDNNYNTAETNNKVHETSSKSSSLSAIIVFGYPESISNELIEHFSHFGHIMEDFQVLRLGRGINPNTFRIFHNHDTGCDENDSTVNKSITLKGRNNESNNKKYPIFTGESWVKLTYNSPSSALRALQENGTIFRGSLIGCIPYSKNAVEQLAGCKIDNVDDIGEFNVSMYQNSSTSSTSNTPSPPNVIITDGTLLREDDNTPAGHAGNPTNISSPIVANSPNKRLDVIDGKLPFMQNAGPNSNIPNLLRNLESKMRQQEAKYRNNEPAGFTHKLSNWLFGWNDL
4 | binds |  | 6xHis-MBP-Nup59 (natural protein, S. cerevisiae, UniProt Q05166 1-528, looked up) MFGIRSGNNNGGFTNLTSQAPQTTQMFQSQSQLQPQPQPQPQQQQQHLQFNGSSDASSLRFGNSLSNTVNANNYSSNIGNNSINNNNIKNGTNNISQHGQGNNPSWVNNPKKRFTPHTVIRRKTTKQNSSSDINQNDDSSSMNATMRNFSKQNQDSKHNERNKSAANNDINSLLSNFNDIPPSVTLQDWQREDEFGSIPSLTTQFVTDKYTAKKTNRSAYDSKNTPNVFDKDSYVRIANIEQNHLDNNYNTAETNNKVHETSSKSSSLSAIIVFGYPESISNELIEHFSHFGHIMEDFQVLRLGRGINPNTFRIFHNHDTGCDENDSTVNKSITLKGRNNESNNKKYPIFTGESWVKLTYNSPSSALRALQENGTIFRGSLIGCIPYSKNAVEQLAGCKIDNVDDIGEFNVSMYQNSSTSSTSNTPSPPNVIITDGTLLREDDNTPAGHAGNPTNISSPIVANSPNKRLDVIDGKLPFMQNAGPNSNIPNLLRNLESKMRQQEAKYRNNEPAGFTHKLSNWLFGWNDL

Reference: PMC2700399 (The Journal of Cell Biology, 2009)
